Test results as given in US10017734B2, “Method for producing dopaminergic neurons” (TAKEDA PHARMACEUTICAL COMPANY LIMITED, priority 2013, dated 2018).

Experiments:
[1] = test system: floor plate cells induced from human iPS cell (253G1 strain, 201B7 strain); experiment: Study of various MEK inhibitors (including FGFR inhibitor): NURR1 expression by quantitative RT-PCR on day 45; format: cell-based; settings: for expression of NURR1: 253G1 strain, added to ascorbic acid and dbcAMP, 3 μM PD0325901, 3 μM PD184352, 10 μM SU5402
From the text: Whether midbrain dopaminergic neuron can be induced in a medium containing any of PD184352 (Axon MedChem), SU5402 (FGF receptor (FGFR) inhibitor, Wako Pure Chemical Industries, Ltd.) and PD173074 (FGFR inhibitor, Axon MedChem) instead of PD0325901 in the aforementioned (A) Neuro/B27 was studied.
Floor plate cells were induced by a method similar to the methods described in Reference Examples 1 to 3, the medium was exchanged with Neuro/B27 added with (1) 3 factors of ascorbic acid, dbcAMP and PD0325901, (2) 2 factors of ascorbic acid and dbcAMP, (3) ascorbic acid, dbcAMP and 3 μM PD184352, (4) ascorbic acid, dbcAMP and 10 μM SU5402, or (5) ascorbic acid, dbcAMP and 0.1 μM PD173074 on day 13 of culture, and the cells were cultured at 37° C. under 5% CO2 for not less than 30 days. The medium was exchanged every 3-4 days during the above-mentioned culture periods. On day 45 of culture, the cells were recovered, and expression variation of NURR1 was examined. In 253G1 strain, the expression of NURR1 was elevated by the addition of PD0325901, PD184352 or SU5402 and, in 201B7 strain, the expression of NURR1 was elevated by the addition of all 4 kinds.

[2] = test system: human iPS cell (253G1 strain, 201B7 strain); experiment: Floor plate cell marker expression by quantitative RT-PCR on day 13 of culture; format: cell-based; settings: FGF8 added in addition to the 5 kinds (All+FGF8)
Method: The medium after preculture as described in the above-mentioned Reference Example 2 was exchanged with a differentiation induction medium containing factors inducing differentiation into floor plate cell (LDN193189 (0.5 μM, Axon MedChem B.V.), SB431542 (10 μM, Wako Pure Chemical Industries, Ltd.), purmorphamine (0.5 μM, Merck), SHH (200 ng/ml, R&D systems) and CHIR99021 (1 μM, Axon MedChem)) (day 0 of culture), and the cells were cultured at 37° C. under 5% CO2 for 5 days. Then, the medium was exchanged with a differentiation induction medium containing 0.5 μM LDN193189 and 1 μM CHIR99021, and the cells were cultured at 37° C. under 5% CO2 for 5-8 days (total 10-13 days). […]
To examine expression variation of floor plate cell marker due to the presence or absence of factors inducing differentiation into floor plate cell (LDN193189, SB431542, purmorphamine, SHH and CHIR99021), the cells on day 13 of culture were recovered, and total RNA fraction was purified using RNeasy (Qiagen). Using PrimeScript RT reagent kit (Takara Bio Inc.), cDNA was synthesized, quantitative RT-PCR was performed, and the gene expression levels of floor plate cell markers FOXA2 and LMX1A were measured. […]

[3] = test system: TH/hNuc double positive cells in the mouse striatum; experiment: Transplantation of day 26 cells to mouse striatum, tissue staining for TH and hNuc; format: in vivo, NOD SCID mice
Method: Midbrain floor plate cells were induced by a method similar to the methods described in Reference Examples 1 to 3, the medium was exchanged with Neuro/B27 added with 0.1 mM ascorbic acid, 0.5 mM dbcAMP, 3 μM PD0325901 or 0.1 mM ascorbic acid, 0.5 mM dbcAMP, 3 μM PD0325901, 20 ng/ml activin A on day 12 of culture, and the cells were cultured for 14 days more (total 26 days). After culture, the cells were washed with PBS, and dispersed by treating with TrypLE Express (Life Technologies) at 37° C. for 10 min. The cell concentration was adjusted to 1×10^5 cells/μl with Neuro/B27 medium, and the cells were maintained on ice until transplantation.
A transplantation experiment to mouse striatum was performed as follows. Twelve 8-week-old male NOD SCID mice (Charles River Laboratories Japan, Inc.) were divided into a control group and an activin A group (6 mice per each group). The cells cultured with the addition of ascorbic acid, dbcAMP, PD0325901 were used for transplantation to the control group, and the cells cultured with the addition of ascorbic acid, dbcAMP, PD0325901, activin A were used for transplantation to the activin A group. The hair of the head surgical field of the mice was shaved under pentobarbital (50 mg/kg, ip) anesthesia, and isodine was applied. Several minutes later, the skin was disinfected by wiping off isodine with Menban immersed in 0.1% Osvan aqueous solution, and the mice were fixed on a brain stereotaxis apparatus (David Kopf, David Kopf Instruments in USA). The scalp was incised from the midline, periosteum was detached, and Bregma and Lambda of the mice were exposed. “The mouse brain in stereotaxic coordinates” was referred to for the coordinate of the striatum (AP: +0.5 mm; ML: +1.8 mm), a hole was made in the cranial bone with an electric drill (ϕ0.5 mm), Hamilton syringe was inserted from the surface of the cranial bone to the depth DV: −3.5 mm, and the cells (1×10^5 cells/μl, 2 μl) were transplanted over 10 min After transplantation, the incision on the head was sutured and the mice were allowed to recover. […]

[4] = test system: floor plate cells induced from human iPS cell (253G1 strain, 201B7 strain); experiment: TH and NURR1 expression by quantitative RT-PCR on day 26 of culture; format: cell-based
Method: Floor plate cells were induced by a method similar to the methods described in Reference Examples 1 to 3, the medium was exchanged with Neuro/B27 added with one or more kinds of 0.1 mM ascorbic acid, 0.5 mM dbcAMP, 3 μM PD0325901, and 20 ng/ml activin A (R&D), or Neuro/B27 without addition of ascorbic acid, dbcAMP, PD0325901, and activin A as a control on day 12 of culture, and the cells were cultured for 14 days more (total 26 days). The cells after culture were recovered, and the expression variation of TH and NURR1 was examined by a method similar to Reference Example 3. […] On the other hand, when ascorbic acid, dbcAMP and PD0325901 were added, the expression level was lower at the time point of day 26 of culture than the addition of ascorbic acid, dbcAMP and activin A.

Q: Which “expression of NURR1” value [1] does the source give for `Cc1c[nH]c(C=C2C(=O)Nc3ccccc32)c1CCC(=O)O` [SU5402, 3-[4-methyl-2-(2-oxo-1,2-dihydro-indol-3-ylidenemethyl)-1H-pyrrol-3-yl]-propanoic acid] here?
A: elevated

Q: With `CCCS(=O)(=O)Nc1ccc(F)c(C(=O)c2c[nH]c3ncc(-c4ccc(Cl)cc4)cc23)c1F` [PLX4032] as the molecule, how does the “effect on expression of NURR1” value ([1]; strain and concentration not given) read?
A: no effect

Q: `O=C(NOCC1CC1)c1ccc(F)c(F)c1Nc1ccc(I)cc1Cl` [PD184352, 2-(2-chloro-4-iodophenylamino)-N-cyclopropylmethoxy-3,4-difluorobenzamide] was tested. Which “expression of NURR1” value [1] did it give?
A: elevated

B1: FGF8: growth factor, fibroblast growth factor-8 (protein, UniProt P55075 23-233, looked up)
Fibroblast growth factor 8: QEGPGRGPALGRELASLFRAGREPQGVSQQHVREQSLVTDQLSRRLIRTYQLYSRTSGKHVQVLANKRINAMAEDGDPFAKLIVETDTFGSRVRVRGAETGLYICMNKKGKLIAKSNGKGKDCVFTEIVLENNYTALQNAKYEGWYMAFTRKGRPRKGSKTRQHQREVHFMKRLPRGHHTTEQSLRFEFLNYPPFTRSLRGSQRTWAPEPR
Q: For B1, which “expression of FOXA2 and LMX1A” value [2] is on record?
A: scarcely changed

B2: activin A: peptidic cell proliferation and differentiation factor belonging to the TGFβ family; activator of activin receptor-like kinase-4,7 (protein, UniProt P08476 311-426, looked up)
Inhibin beta A chain: GLECDGKVNICCKKQFFVSFKDIGWNDWIIAPSGYHANYCEGECPSHIAGTSGSSLSFHSTVINHYRMRGHSPFANLKSCCVPTKLRPMSMLYYDDGQNIIKKDIQNMIVEECGCS
modifications: Inhibin beta A chain
Q: For B2, which “TH/hNuc double positive cells” value ([3]; 4 weeks after transplantation to mouse striatum) is on record?
A: not less than 40%

Q: And the “TH/hNuc double positive cells” value ([3]; 8 weeks after transplantation to mouse striatum)?
A: not less than 50%

Q: What about the “TH/hNuc double positive cells, change as compared to 8 weeks” value ([3]; 12 weeks after transplantation to mouse striatum) of the same molecule?
A: did not show a remarkable increase

Q: And the “expression of TH and NURR1” value ([4]; 20 ng/ml activin A alone)?
A: scarcely elevated

Q: And the “expression of TH and NURR1” value ([4]; activin A added together with ascorbic acid and dbcAMP)?
A: increased remarkably
